For this series, the system named is Tal7 (His-Tal7) (Xanthomonas oryzae pv. oryzicola RS105). In words: MST.

With Os09g29100 promoter MST fragment, the Kd is 2260 nM. Os12g42970 promoter MST fragment: the Kd stood at 2930 nM.

Source of the values: paper PMC5505973.
